Measured values reported in publication PMC6377645, “Structural insights into chaperone addiction of toxin-antitoxin systems” (Nature Communications, 2019).

Molecular target: Mtb-HigA1^ΔC42 (Mtb-HigA1 deleted of the last 42 residues) (Mycobacterium tuberculosis)
Assay: SEC-MALS; Superdex 200 Increase 5/150; 20 mM MES, 200 mM NaCl, pH 6.5; 15 °C; Mtb-SecB^TA 49.1 µM, Mtb-SecB^TA/HigA1 6.5 µM, Mtb-HigA1^ΔC42 100 µM

Substance “Mtb-HigA1^ΔC42 (Mtb-HigA1 deleted of the last 42 residues) (domain or fragment)” has a stoichiometry N of 2.
